The data set concerns the molecule itself. Kind of data set: intact protein mass determination (UHPLC-HRMS); reverse-phase C4 column, water/acetonitrile with 0.1% formic acid, electrospray, QTof; covalent (disulphide) dimer.

B1: Noggin (residues 28-232) (natural protein)
chain: MQHYLHIRPAPSDNLPLVDLIEHPDPIFDPKEKDLNETLLRSLLGGHYDPGFMATSPPEDRPGGGGGAAGGAEDLAELDQLLRQRPSGAMPSEIKGLEFSEGLAQGKKQRLSKKLRRKLQMWLWSQTFCPVLYAWNDLGSRFWPRYVKVGSCFSKRSCSVPEGMVCKPSKSVHLTVLRWRCQRRGGQRCGWIPIQYPIISECKCSC
modifications: biotin (biotinylated Noggin in the BLI experiments); methionine oxidation, mainly on the N-terminal methionine, in part of the sample
notes: Noggin, residues 28-232 of UniProt Q13253; Disulphide-linked homodimer; No tag (pET-17(b)); for the crystal, SEC-MALS and cell assays no biotinylation is mentioned; also called antagonist Noggin; recombinant Noggin
Regarding B1, the “stoichiometry N” value came out at 2.
